For two molecules, EC50 and IC50 results are on record in patent CN115975019A (INST PATHOGEN BIOLOGY CAMS, dated 2023).

The target in this test is SARS-CoV-2 刺突RBD蛋白 (Sinobiological) (SARS-CoV-2, UniProt P0DTC2 319-541).

B1: A70抗体 (antibody, V domains shown)
VH: QITLKESGPTLVKPTQTLTLTCTFSGFSLDTPGVAIGWIRQPPGRALEWLGLIYWDGDERYNPSLTSRVTLTKDTSKNQVVLTMTNVDSVDTGTYFCGHKTIPTIFGVWGQGAPVTVSS
VL: QSALTQPASVSGSPGQSITISCAATSGDFGVFNYVSWYQQHPGKAPKLIIFEVSSRPSGVSNRFSGSKSGNTASLTVSGLQAEDEAVYHCSSYSTSSVVFGGGTKLTVL
notes: also called 抗体A70
As usually defined, the EC50 is the concentration giving half of the maximal effect. In general, IC50 refers to the concentration at which inhibition is half-maximal. Low readings indicate higher potency, high ones lower potency. Regarding B1, the half-maximal effective concentration (EC50) worked out at 0.0511 µg/mL and half-maximal inhibition (IC50) required 0.515 µg/mL.

B2: A46抗体 (antibody, V domains shown)
VH: EVQLLESGGGLIQPGGSLRLSCAVSEFIVSRNYMSWVRQAPGKGLEWVSVLYPGGSTFYADSVKGRFTISRDESTNTLFLQMNTLRVEDTAVYYCARDFGDFYFDFWGQGTLVTVSS
VL: EIVLTQSPGTLSLSPGQRAALSCRASQSVSTYLAWYQQKPGQAPRLLIHDASSRASGVPDRFSGTGSGTDFTLTITRLEPEDFAVYYCQQYGTSPRTFGQGTKLEIK
notes: also called 抗体A46
B2 registered an EC50 of 0.0355 µg/mL and an IC50 of 0.703 µg/mL.
